Molecular target: the molecule itself
Test: native gel or EMSA; NATIVE-PAGE (12% in the methods, 10% in the legend of Fig. 3a) of purified protein loaded without any treatment, 10 ug (Fig. 3a) or 20 ug each of wild type and mutant (Fig. 2a); band at ~115 kDa against ~36 kDa on SDS-PAGE

B1: MSMEG_3955 from Mycobacterium smegmatis, recombinant wild-type protein (enzyme, Mycobacterium smegmatis mc2 155, UniProt A0QZA6 1-334, looked up)
chain: MNTHFPDTETIHAALALAMRAPSIHNSQPWQWRVGERSVHLYADLDRHLTSTDPDSRDLLLSCGAALHHCVIAFAALGWYASVHRLPNPAEPEHLASIELRRQTPTDLDIALAAAIPRRRTDRRHYSAWPVSHSDIAMMGARAARAGVMLRRVESLSRLQDIVAESIARHAADDGYLRELTAWSGKYASTAGVPARSAPKPEPGAPLSSRMFAGAALKQPDTGAGADEGAVVLALGTADDTRMSRLRAGEATSLILLTATAMGLATCPVTEPLEISETRDAVQAEVFGASAFPQMMLRVGWAPVNADPLPPTPRRHVADAVRWLDGSPFEPESE
notes: MSMEG_3955, Mycobacterium smegmatis mc2 155, NADPH-dependent FMN oxidoreductase of the Acg family; gene amplified from genomic DNA with primers from the ATG to the stop codon (~1005 bp amplicon, ~36 kDa protein); tag removal is not described; also called protein MSMEG_3955; homologue of Rv3131; source: E. coli BL21 (DE3), pET-28a, purified (Ni-NTA)
With B1 the “stoichiometry N” value was 3.

— publication PMC8605562, “MSMEG_3955 from Mycobacterium smegmatis is a FMN bounded homotrimeric NAD(P)H:Flavin mononucleotide (FMN) oxidoreductase” (BMC Microbiology, 2021)
